Measurements as given in PMC9482650, “Quantitative fragmentomics allow affinity mapping of interactomes” (Nature Communications, 2022).

T1: PTPN13_1, Q12923
T1 sequence (Q12923 1088-1188, limits assumed, looked up): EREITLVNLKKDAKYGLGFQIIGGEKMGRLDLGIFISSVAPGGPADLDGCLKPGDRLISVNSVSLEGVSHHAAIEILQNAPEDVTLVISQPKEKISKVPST

T2: ARHGEF11, O15085
T2 sequence (O15085 42-136, limits assumed, looked up): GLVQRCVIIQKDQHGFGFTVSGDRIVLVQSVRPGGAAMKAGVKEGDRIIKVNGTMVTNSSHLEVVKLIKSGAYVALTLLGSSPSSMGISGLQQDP

T3: MPP6, Q9NZW5
T3 sequence (Q9NZW5 125-219, limits assumed, looked up): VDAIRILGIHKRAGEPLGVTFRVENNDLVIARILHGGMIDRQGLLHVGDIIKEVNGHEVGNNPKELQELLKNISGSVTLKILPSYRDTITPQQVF

T4: GRIP1_7, Q9Y3R0
T4 sequence (Q9Y3R0 999-1096, limits assumed, looked up): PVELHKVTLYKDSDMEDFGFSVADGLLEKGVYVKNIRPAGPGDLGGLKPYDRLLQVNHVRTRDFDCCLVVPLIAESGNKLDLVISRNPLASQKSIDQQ

T5: LIN7A, O14910
T5 sequence (O14910 103-200, limits assumed, looked up): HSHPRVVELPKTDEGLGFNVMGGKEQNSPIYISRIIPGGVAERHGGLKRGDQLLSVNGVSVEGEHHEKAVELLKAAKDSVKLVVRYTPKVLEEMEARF

T6: MPP7, Q5T2T1
T6 sequence (Q5T2T1 134-230, limits assumed, looked up): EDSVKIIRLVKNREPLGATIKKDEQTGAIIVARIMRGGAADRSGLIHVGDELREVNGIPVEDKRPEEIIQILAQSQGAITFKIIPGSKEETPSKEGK

T7: PDZRN3_1, Q9UPQ7
T7 sequence (Q9UPQ7 244-349, limits assumed, looked up): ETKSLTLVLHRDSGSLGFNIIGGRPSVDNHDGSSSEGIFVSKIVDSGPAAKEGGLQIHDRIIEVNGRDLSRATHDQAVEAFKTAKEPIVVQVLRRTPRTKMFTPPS

T8: SYNJ2BP, P57105
T8 sequence (P57105 8-110, limits assumed, looked up): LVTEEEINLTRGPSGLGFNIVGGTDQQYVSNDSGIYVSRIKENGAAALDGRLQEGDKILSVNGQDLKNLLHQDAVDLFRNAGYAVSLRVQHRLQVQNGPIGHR

T9: GRIP1_5, Q9Y3R0
T9 sequence (Q9Y3R0 568-668, limits assumed, looked up): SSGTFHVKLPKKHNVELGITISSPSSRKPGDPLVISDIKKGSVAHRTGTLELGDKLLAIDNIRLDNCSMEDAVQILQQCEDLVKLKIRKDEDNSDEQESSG

T10: PCLO, Q9Y6V0
T10 sequence (Q9Y6V0 4491-4600, limits assumed, looked up): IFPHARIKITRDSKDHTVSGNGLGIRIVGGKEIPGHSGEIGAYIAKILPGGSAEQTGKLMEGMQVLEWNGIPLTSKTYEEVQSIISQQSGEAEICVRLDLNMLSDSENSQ


How the values were obtained:
Assay in all cases: holdup assay
Parameters in all cases: key: below the threshold = too weak to quantify, mostly under pKd 3.1 to 4
Details in all cases: plain residues with an end cap or a label only (N-terminal biotin on a linker: ado-ado)
PTPN13_1, Q12923 = biological target: T1, PTPN13_1, Q12923
AHNAK1, Q09666 = biological target: AHNAK1, Q09666
Inadl_4, Q8NI35 = biological target: Inadl_4, Q8NI35
SCRIB_2, Q14160 = biological target: SCRIB_2, Q14160
ARHGEF11, O15085 = biological target: T2, ARHGEF11, O15085
MAGI2_5, Q86UL8 = biological target: MAGI2_5, Q86UL8
MAGI2_3, Q86UL8 = biological target: MAGI2_3, Q86UL8
MAST2, Q6P0Q8 = biological target: MAST2, Q6P0Q8
HTRA1, Q92743 = biological target: HTRA1, Q92743
MPP6, Q9NZW5 = biological target: T3, MPP6, Q9NZW5
GRIP2_3, Q9C0E4 = biological target: GRIP2_3, Q9C0E4
FRMPD2_1, Q68DX3 = biological target: FRMPD2_1, Q68DX3
GRIP1_7, Q9Y3R0 = biological target: T4, GRIP1_7, Q9Y3R0
LIN7A, O14910 = biological target: T5, LIN7A, O14910
MPP7, Q5T2T1 = biological target: T6, MPP7, Q5T2T1
MAGI1_1, Q96QZ7 = biological target: MAGI1_1, Q96QZ7
GRASP, Q7Z6J2 = biological target: GRASP, Q7Z6J2
DLG4_2, P78352 = biological target: DLG4_2, P78352
GRID2IP_1, A4D2P6 = biological target: GRID2IP_1, A4D2P6
MAGI1_2, Q96QZ7 = biological target: MAGI1_2, Q96QZ7
PDZRN3_1, Q9UPQ7 = biological target: T7, PDZRN3_1, Q9UPQ7
SYNJ2BP, P57105 = biological target: T8, SYNJ2BP, P57105
GIPC2, Q8TF65 = biological target: GIPC2, Q8TF65
GRIP2_6, Q9C0E4 = biological target: GRIP2_6, Q9C0E4
NHERF4_2, Q86UT5 = biological target: NHERF4_2, Q86UT5
GRIP1_5, Q9Y3R0 = biological target: T9, GRIP1_5, Q9Y3R0
PCLO, Q9Y6V0 = biological target: T10, PCLO, Q9Y6V0

HTRA1, Q92743, sequence (Q92743 360-477): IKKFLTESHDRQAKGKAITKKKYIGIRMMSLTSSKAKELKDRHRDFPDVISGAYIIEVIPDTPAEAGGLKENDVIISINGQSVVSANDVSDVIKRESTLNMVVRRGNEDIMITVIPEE
MAGI2_3, Q86UL8, sequence (Q86UL8 600-682): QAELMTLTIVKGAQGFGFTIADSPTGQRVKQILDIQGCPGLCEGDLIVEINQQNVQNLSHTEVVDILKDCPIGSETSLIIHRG
GRID2IP_1, A4D2P6, sequence (A4D2P6 1-87): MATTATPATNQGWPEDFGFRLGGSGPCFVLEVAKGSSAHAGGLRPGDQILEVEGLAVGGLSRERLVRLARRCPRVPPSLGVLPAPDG
GRASP, Q7Z6J2, sequence (Q7Z6J2 96-193): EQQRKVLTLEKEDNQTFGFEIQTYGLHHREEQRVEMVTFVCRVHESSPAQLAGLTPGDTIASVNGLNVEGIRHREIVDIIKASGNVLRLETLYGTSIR
NHERF4_2, Q86UT5, sequence (Q86UT5 220-308): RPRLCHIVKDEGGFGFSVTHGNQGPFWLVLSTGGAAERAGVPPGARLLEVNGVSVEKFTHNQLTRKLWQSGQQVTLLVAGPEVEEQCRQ
DLG4_2, P78352, sequence (P78352 155-259): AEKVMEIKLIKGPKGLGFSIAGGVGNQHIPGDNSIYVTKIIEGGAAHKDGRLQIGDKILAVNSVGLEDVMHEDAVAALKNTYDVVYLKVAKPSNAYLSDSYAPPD
FRMPD2_1, Q68DX3, sequence (Q68DX3 770-861): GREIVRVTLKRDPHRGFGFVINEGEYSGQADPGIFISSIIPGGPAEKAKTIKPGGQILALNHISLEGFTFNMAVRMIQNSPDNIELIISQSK
SCRIB_2, Q14160, sequence (Q14160 857-960): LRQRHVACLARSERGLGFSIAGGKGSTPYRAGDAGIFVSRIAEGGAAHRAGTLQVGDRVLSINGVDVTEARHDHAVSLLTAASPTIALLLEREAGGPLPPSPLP
MAGI1_1, Q96QZ7, sequence (Q96QZ7 1-106): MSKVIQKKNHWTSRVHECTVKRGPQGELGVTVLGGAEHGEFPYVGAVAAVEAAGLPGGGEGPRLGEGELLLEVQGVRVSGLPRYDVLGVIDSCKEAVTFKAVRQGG
GIPC2, Q8TF65, sequence (Q8TF65 112-203): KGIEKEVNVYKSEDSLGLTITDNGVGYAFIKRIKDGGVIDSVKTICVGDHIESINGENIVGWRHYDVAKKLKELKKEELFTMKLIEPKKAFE
MAST2, Q6P0Q8, sequence (Q6P0Q8 1099-1202): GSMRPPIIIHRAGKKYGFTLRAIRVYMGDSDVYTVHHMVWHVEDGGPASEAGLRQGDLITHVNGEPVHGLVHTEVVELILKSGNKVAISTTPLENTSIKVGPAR
MAGI1_2, Q96QZ7, sequence (Q96QZ7 456-580): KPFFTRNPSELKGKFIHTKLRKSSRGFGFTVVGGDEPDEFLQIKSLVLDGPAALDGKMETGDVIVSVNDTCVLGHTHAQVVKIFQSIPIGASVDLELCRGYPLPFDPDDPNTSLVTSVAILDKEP
AHNAK1, Q09666, sequence (Q09666 4-100): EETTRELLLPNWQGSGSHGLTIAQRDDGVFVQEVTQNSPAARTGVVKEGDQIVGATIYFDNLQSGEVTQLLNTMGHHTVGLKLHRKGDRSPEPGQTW
GRIP2_3, Q9C0E4, sequence (Q9C0E4 238-339): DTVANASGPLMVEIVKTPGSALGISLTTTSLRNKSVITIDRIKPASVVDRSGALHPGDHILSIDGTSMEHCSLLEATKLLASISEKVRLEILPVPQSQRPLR
MAGI2_5, Q86UL8, sequence (Q86UL8 915-1017): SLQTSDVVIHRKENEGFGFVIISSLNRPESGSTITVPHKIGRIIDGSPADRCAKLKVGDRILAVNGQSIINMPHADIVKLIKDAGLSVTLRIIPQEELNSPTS
Inadl_4, Q8NI35, sequence (Q8NI35 547-651): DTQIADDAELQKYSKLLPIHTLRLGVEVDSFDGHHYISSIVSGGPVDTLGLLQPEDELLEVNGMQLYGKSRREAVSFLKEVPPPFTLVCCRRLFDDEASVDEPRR
GRIP2_6, Q9C0E4, sequence (Q9C0E4 648-740): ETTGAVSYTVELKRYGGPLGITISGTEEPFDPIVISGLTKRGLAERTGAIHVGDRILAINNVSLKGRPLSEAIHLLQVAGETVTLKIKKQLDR

| pKd (PTPN13_1, Q12923) | pKd (AHNAK1, Q09666) | pKd (Inadl_4, Q8NI35) | pKd (SCRIB_2, Q14160) | pKd (ARHGEF11, O15085) | pKd (MAGI2_5, Q86UL8) | pKd (MAGI2_3, Q86UL8) | pKd (MAST2, Q6P0Q8) | pKd (HTRA1, Q92743) | pKd (MPP6, Q9NZW5) | pKd (GRIP2_3, Q9C0E4) | pKd (FRMPD2_1, Q68DX3) | pKd (GRIP1_7, Q9Y3R0) | pKd (LIN7A, O14910) | pKd (MPP7, Q5T2T1) | pKd (MAGI1_1, Q96QZ7) | pKd (GRASP, Q7Z6J2) | pKd (DLG4_2, P78352) | pKd (GRID2IP_1, A4D2P6) | pKd (MAGI1_2, Q96QZ7) | Binder | also measured |
| --- | --- | --- | --- | --- | --- | --- | --- | --- | --- | --- | --- | --- | --- | --- | --- | --- | --- | --- | --- | --- | --- |
| below the threshold | below the threshold | below the threshold | 4.73 | below the threshold | below the threshold | below the threshold | 5.22 | below the threshold | 3.63 | below the threshold | below the threshold | below the threshold | below the threshold | below the threshold | below the threshold | below the threshold | 4.54 | below the threshold | below the threshold | DYSNLRETDI [ADRA1D, P25100] | pKd (PDZRN3_1, Q9UPQ7): 3.69; pKd (SYNJ2BP, P57105): 4.43; pKd (GIPC2, Q8TF65): 3.8; pKd (GRIP2_6, Q9C0E4): below the threshold; pKd (NHERF4_2, Q86UT5): below the threshold; pKd (GRIP1_5, Q9Y3R0): below the threshold; pKd (PCLO, Q9Y6V0): below the threshold |
| below the threshold | below the threshold | below the threshold | below the threshold | 3.58 | below the threshold | below the threshold | 4.12 | 4.3 | below the threshold | below the threshold | below the threshold | below the threshold | below the threshold | below the threshold | below the threshold | 4.47 | 4.01 | below the threshold | below the threshold | GVHSNDHSVV [LPAR1, Q92633] | pKd (PDZRN3_1, Q9UPQ7): below the threshold; pKd (SYNJ2BP, P57105): 3.7; pKd (GIPC2, Q8TF65): below the threshold; pKd (GRIP2_6, Q9C0E4): below the threshold; pKd (NHERF4_2, Q86UT5): below the threshold; pKd (GRIP1_5, Q9Y3R0): below the threshold; pKd (PCLO, Q9Y6V0): below the threshold |
| below the threshold | below the threshold | below the threshold | below the threshold | below the threshold | below the threshold | below the threshold | 4.62 | 3.51 | 3.58 | below the threshold | below the threshold | below the threshold | below the threshold | below the threshold | below the threshold | below the threshold | below the threshold | below the threshold | below the threshold | SAGADSETHC [SLCO1B1, Q9Y6L6] | pKd (PDZRN3_1, Q9UPQ7): below the threshold; pKd (SYNJ2BP, P57105): below the threshold; pKd (GIPC2, Q8TF65): 3.71; pKd (GRIP2_6, Q9C0E4): below the threshold; pKd (NHERF4_2, Q86UT5): below the threshold; pKd (GRIP1_5, Q9Y3R0): below the threshold; pKd (PCLO, Q9Y6V0): below the threshold |
| below the threshold | below the threshold | below the threshold | below the threshold | 4.25 | below the threshold | below the threshold | 5.45 | below the threshold | below the threshold | below the threshold | below the threshold | below the threshold | below the threshold | below the threshold | below the threshold | 4.71 | 4.04 | below the threshold | 4.7 | WAKEKQHTRL [SLC17A1, Q14916] | pKd (PDZRN3_1, Q9UPQ7): 3.79; pKd (SYNJ2BP, P57105): below the threshold; pKd (GIPC2, Q8TF65): below the threshold; pKd (GRIP2_6, Q9C0E4): below the threshold; pKd (NHERF4_2, Q86UT5): below the threshold; pKd (GRIP1_5, Q9Y3R0): below the threshold; pKd (PCLO, Q9Y6V0): below the threshold |
| below the threshold | below the threshold | below the threshold | below the threshold | 5.03 | 4.28 | below the threshold | 5.6 | 3.91 | 3.54 | below the threshold | below the threshold | below the threshold | below the threshold | below the threshold | below the threshold | 4.32 | 4.23 | below the threshold | 4.54 | YAEKRMLTEV [KCNA6, P17658] | pKd (PDZRN3_1, Q9UPQ7): below the threshold; pKd (SYNJ2BP, P57105): 4.05; pKd (GIPC2, Q8TF65): below the threshold; pKd (GRIP2_6, Q9C0E4): below the threshold; pKd (NHERF4_2, Q86UT5): below the threshold; pKd (GRIP1_5, Q9Y3R0): below the threshold; pKd (PCLO, Q9Y6V0): below the threshold |
